Data as given in paper PMC4686714.

Target: ENPP1-Fc fusion protein (not stated | not stated (human or mouse cDNA cloned)) (UniProt P22413)
Test: SEC-MALS; SEC-MALLS/UV/RI, Superose 6 10/30 HR column, PBSplus buffer, 0.3 ml/min; ENPP1-Fc at 100 nM to 1 uM measured at the apex of the eluting peak; three detector approach

stoichiometry N: 2
Substance: ENPP1-Fc fusion protein (from UniProt P22413 98-925)
